This data set in a line: soluble on expression in E. coli; label from the status in PepcDB or PDB records.
Turning to “MEKVMIELEEQVNQLINQILLKAENQYELLIGQCRSKVKLTNTQEHILMLLSEGQKTNSELAKALNVSQAAVTKAVKTLVKEGMLEGKKDKDDGRVTYFVLTQEAQPIAQEHKEHHQETLGVYRSVLDQFDHQERQVIGRFLIKLAEKIEE”, the “soluble on expression in E. coli” value is “not soluble”.

For the sequence “MEKVVCIGCGVTIQTEDKTGLGYAPPASLTKENVICQRCFRLKNYNEIQDVSLTDDDFLNILHGIGETDSLVVKIVDIFDFNGSWINGLQRLVGGNPILLVGNKADILPKSLKRERLIQWMKREAKELGLKPVDVFLVSAGRGQGIREVIDAIEHYRNGKDVYVVGCTNVGKSTFINRIIKEVSGEEDIITTSQFPGTTLDAIEIPLDDGSSLYDTPGIINNHQMAHYVNKKDLKILSPKKELKPRTFQLNDQQTLYFGGLARFDYVSGERSPFICYMPNELMIHRTKLENADALYEKHAGELLTPPGKDEMDEFPELVAHTFTIKDKKTDIVFSGLGWVTVHDADKKVTAYAPKGVHVFVRRSLILEHHHHHH”, the “soluble on expression in E. coli” value is “soluble”.

On to “MEKYIKEQRSICDKYKAEYVESPNDLKLGIAQNVKDGIAPINGLRMPIENGTTGWYIWAGEEMGTEEDFFLPLHVQHIDEWAPEIKKYLGLPPGWRFLIAGDYEDVWYDPNLFDEDLEEDADEWEENMLQEYGWYMHSILAEDIDGIHANYHTHGLRDNFNHQDLQIALNMDPEVAHSVFCTIIEEIKSGKKFEQGIEYTNIIEGYPIIMKSFVEMDREVLRVLLPDERGILPTRPECDECYKTQLDDIEES”, for which the “soluble on expression in E. coli” value is “not soluble”.

On to “MELEDANVTKKVELRPLIGLTRGLPPTDLETITIDAIRTHRRLVEKADELFQALPETYKTGQACGGPQHIRYIEASIEMHAQMSALNTLYSILGFIPKVVVN”, for which the “soluble on expression in E. coli” value is reported as “soluble”.

Take “MELGLAGKTALVAASSQGLGKAIARALVLEGTNVMITSRNEEKLHEVAEELNSLHKGRVAYTRTDVTNADDIRQLVAKTVETFGTIDLLVNNAGGPPAGTFETVSDEDWQYAFELNLLSYIRLIREALPYLKKKGGKIVNIASSSIKEPIPGLILSNTFRTGIVGLTKTLAVELAPDGILINTVAPGRIATERVAFLDKVNAEKLGITKEEMEARMKSAIPLGRYGTPEEFANVVVFLLSEANSYVTGQALIVDGGMVKAI”: the “soluble on expression in E. coli” value was “soluble”.

For “MELKKLMGHISIIPDYRQAWKMEHKLSDILLLTICAVISGAEGWEDIEDFGETHPDFLKQYGDFENGIPVHDTIARVVSCISPAKFHECFINWMRDCHSSDDKDVIAIDGKTLRHSYDKSRRRGAIHVISAFSTMHSLVIGQIKTDEKSNEITAIPELLNMLDIKGKIITTDAMGCQKDIAEKIQKQGGDYLFAVKGNQGRLNKAFEEKFPLKELNNPAHDSYAMSEKSHGREEIRLHIVCDVPDELIDFTFEWKGLKKLCVAVSFRSIIAEQKKELEMTVRYYISSADLTAEKFATAIRNHWHVENKLHWRLDVVMNEDDCKIRRGNAAELFSGIRHIAINILTNDKVFKAGLRRKMRKAAMDRNYLASVLTGSGLS”, the “soluble on expression in E. coli” value is given as “soluble”.

As to “MELLLSKVTDAGIDPSSVSGEEAITLWEHIGRHIASTSREKAHCLIISAEYRREIKQLCDSIEELRQALELLSLPEDVEDILSVKASLSERLVEVGDYNSALTEYIASTNIAVEYGFIDEYVLAIIGMGNLCDAYGDHNRALRYYQKIDAIDHAISSRSLRLRYKLYMLACYISLKRVAEASELLGECEELSILVSDKNLAAQTHLYRAKLHRLQEEYSEALLSISSIKYTTGSATTYWLSTMVKIETAYCLNGVGHTSLANLLLESIGKRIKKHSSPILAKRFYNAMSKVSASQGQFQQALSCEKRAFRIESDLIKHIPISELGAAQLRRLSRFELQLKLILSEIENKEL”, the “soluble on expression in E. coli” value is listed as “not soluble”.

Regarding “MELQDLELQLEERLLGLEEQLRAVRMPSPFRSSALMGMCGSRSTDNLSCPSPLNVMEPVTELMQEQSYLKSELGLGLGEMGFEIPPGESSESVFSKQRSESSSICSGPSHANRRTGVPSTASVGKSKTPLVARKKVFRASVALTPTAPSRTGSVQTPPDLESSEEVDAAEGAPEVVGPKSESEVEEGHGKLPSMPAAEEMHKNVEQDELQQVIREIKESIVGEIRREIVSGLLAAVSSSKASNSKQDYHLEHHHHHH”, the “soluble on expression in E. coli” value was “not soluble”.

For the sequence “MELSDSKVIAADRATVWAALLSPEVLKECVPGCQEMSGSPDEGFEATVVQKVGPVKATFKGGVTLSEMVAPESLTLSGEGKGGAAGFAKGAARVRLEEGADGTTILSYEVEAKVGGKLAQLGSRIIDGFARKMADQFFTRFQEVLEGPGEAESPEAEASGDAKKKGWFKRVISGLEHHHHHH”, the “soluble on expression in E. coli” value is “soluble”.

Regarding “MENALSTLPLTAPSAELPRFGPPHIPIREDWLDRQREEILDPGLPIVDAHHHLWDRPGQRYMFEDFLRDTGSGHNIRATVYVQCRSMYRLDGPAAMRPVGEAEFVNGVAARSASGMYGPMRACAAIVGYADLTLGAAVEEVLHALVRAAPDRLRGVRNMTAAHASPAVAPGFGRVPEGLLSDARFRAGYARLAPLGLSYDVWAFHSQLAEVLDLARAYPDTALIVNHAGGPLGIGPYAGQRDAVMRDWDHHLRALADCPNVALKLGGLGMHISGLRFHEQDMPPSSEALAEAWRPWIHTAIERFGAQRCMFESNFPVDKGMAAYAAVWNAFKRLARGATPRERQALFAGTAARLYRLPASVLALEHHHHHH”, the “soluble on expression in E. coli” value was “not soluble”.

Take “MENEQQQAQTAPSCRAGCGFFGASATEGYCSQCFKNTLKRQQDTVRLTSPVVSPSSMAATSSALKSEPSSVDMCMKAAVSVSDETAKMDCEDIINVCDQINDDSVTVAESTAPTTITVDVPVPVKKANRCHMCKKRVGLTGFSCRCGGLYCGDHRYDQAHNCQFDYKTMERETIRKNNPVVVSDKVQRI”: the “soluble on expression in E. coli” value is listed as “soluble”.

In the case of “MENGEAKQSVPLLTPYKMGRFNLSHRVVLAPLTRQRSYGNVPQPHAAIYYSQRTTPGGFLITEATGVSDTAQGYQDTPGIWTKEHVEAWKPIVDAVHAKGGIFFCQIWHVGRVSNSGFQPNGKAPISCSDKPLMPQIRSNGIDEALFTPPRRLGIEEIPGIVNDFRLAARNAMEAGFDGVEIHGANGYLIDQFMKDTVNDRTDEYGGSLQNRCKFPLEIVDAVAKEIGPDRVGIRLSPFADYMESGDTNPGALGLYMAESLNKYGILYCHVIEARMKTMGEVHACPHTLMPMRKAFKGTFISAGGFTREDGNEAVSKGRTDLVAYGRWFLANPDLPKRFQVDAPLNKYDRPTFYTSDPVVGYTDYPFLESTA”, the “soluble on expression in E. coli” value is “soluble”.

Turning to “MENKYTHGVLFYHEHSGLKNINQGIGEVTTALSSICKHLSIQLSENEGDIIKYCQEIKTKNYAKDVDILFILGGDGTVNELINGVMSHDLQLPIGILPGGTFNDFTKTLNIAPNHKQASEQMISAQVGTYDVIKINNQYALNFVGLGLIVQNAENVQDGSKDIFGKLSYIGSTVKTLLNPTQFNYQLSIDDKTYSGETTMILTANGPFIGGSRIPLTDLSPQDGELNTFIFNEQSFSILNDIFKKRDSMNWNEITQGIEHIPGKKISLTTDPAMKVDIDGEISLETPIDIEVIPNAIQLLTVNDL”, the “soluble on expression in E. coli” value is “soluble”.

For “MENPINELAAAVHDGLGLTYPPIIDMGPQLTREQLLASMSATMRRHKGGPVWLFAYGSLIWRPECTAVESQRGRVHGYHRGLYLWSHEHRGTPEVPGLVFGLDRGGSCTGFAYRLPDDCLEKSLLALWEREMPYPSYRPHWLNCRLEDGRKVQALGFVLERHLPSYAGNLPDSVLSQVLASASGRYGTTRDYVEQTAKALRSHAMPDLNLEARLKRCKSETAAAALEHHHHHH”, the “soluble on expression in E. coli” value is on record as “not soluble”.

As to “MENSFELMAREWHKNKADRWSLRYREEIIDTFEKDIFPFIGRRPIADIKPMELLETLKRMEKRGALEKMRKVRQRCGEVFRYAIITGRAEYNPAPDLAGALQTHKKQHLPLEHHHHHH”, the “soluble on expression in E. coli” value is recorded as “not soluble”.

Consider “MENVCFQQRLRDLETRVRKWKFLKLGLTEVRLRPRDRRSTSVDQKHKECSSTSSSPQHQRPNNIGYLTSPMERKFTPLSMKPSPSRRDTEKDALEYEFLEGYKKSGTLEIDGEKQVVDPNEIHIISLLGSGSCGVVESATVRSKLMAVKTMYKNDNKENLKRILRDVRIMSMCNSPFIVTSYGYFMFDSSVKICMQIMSACCEKLLRRIYHSKLDFFPEFVAGHIVYSAISALDYLKEKHSIIHRDIKPSNILFDDSGNVKLCDFGISGFMTDSMAHSKSAGCPPYMAPERLTIETNSKYDVRSDVWSLGITVYQLVTGLYPFPLNDMEFTTLTIIANLNLPSPSLREETKRSFSPLFIEFLDLCLRKDVRERPEYRQLMKHDFYLDYDPASGSAYKFKAINGKCNQVADWFVDVIRLSKTEDELKSIPNTPCVN”, for which the “soluble on expression in E. coli” value is recorded as “not soluble”.
